The target of test [1] is T1, recombinant hCD127 (Sino Biologicals, reference 10975-H08H) (human, UniProt P16871 21-239).
T1 construct: Bought recombinant protein; In the Blitz assay the protein is said to be captured by an Fc fragment, and a second catalogue number (11612-H08H) is printed; also called human CD127 recombinant protein; recombinant human CD127
T1 chain: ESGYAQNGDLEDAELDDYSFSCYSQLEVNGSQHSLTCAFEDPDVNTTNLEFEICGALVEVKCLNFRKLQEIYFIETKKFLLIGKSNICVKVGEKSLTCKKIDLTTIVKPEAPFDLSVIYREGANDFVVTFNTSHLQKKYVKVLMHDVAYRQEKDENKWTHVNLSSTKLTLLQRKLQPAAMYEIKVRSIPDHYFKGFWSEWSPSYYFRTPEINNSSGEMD
In words: method not stated.

For test [2], the target named is T2, recombinant hCD127 (Sino Biologicals, reference 10975-H08H) (human) (UniProt P16871).
T2 sequence: T1 chain
In words: method not stated.

Test [3] has as its target T1, recombinant hCD127 (Sino Biologicals, …). Kind of test: ELISA, hCD127 immobilized on plastic at 1 µg/ml (given as ED50). As to the method:
(§1) For activity ELISA assay, recombinant hCD127 (Sino Biologicals, Beijing, China; reference 10975-H08H) was immobilized on plastic at 1 μg/ml and dilutions of anti-CD127 antibody were added to measure binding.

The target in test [4] is T3, human CD127 (IL-7Rα) on human PBMC (human, UniProt P16871 21-459).
T3 chain: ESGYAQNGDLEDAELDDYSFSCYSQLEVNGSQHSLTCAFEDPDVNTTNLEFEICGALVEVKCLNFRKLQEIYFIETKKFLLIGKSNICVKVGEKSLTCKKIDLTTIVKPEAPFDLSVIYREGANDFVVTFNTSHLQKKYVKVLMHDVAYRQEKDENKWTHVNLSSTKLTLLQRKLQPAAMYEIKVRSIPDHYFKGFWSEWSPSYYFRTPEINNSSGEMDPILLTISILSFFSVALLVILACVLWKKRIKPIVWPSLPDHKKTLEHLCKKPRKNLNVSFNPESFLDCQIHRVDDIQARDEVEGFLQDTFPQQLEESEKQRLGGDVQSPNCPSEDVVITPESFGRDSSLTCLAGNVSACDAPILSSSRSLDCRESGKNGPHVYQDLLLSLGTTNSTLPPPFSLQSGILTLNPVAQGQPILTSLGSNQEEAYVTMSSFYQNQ
Kind of test: cell-based or functional assay.

The target of test [5] is T1, recombinant hCD127 (Sino Biologicals, …). Kind of test: Blitz (BLI), hCD127 captured on anti-human IgG Fc (AHC) biosensor, antibody at 20 µg/mL. As to the method: Recombinant hCD127 (Sino Biologicals, Beijing, China; reference 10975-H08H)/recombinant protein (Sino Biological Cat: 11612-H08H) was immobilized at 50 μg/ml by Fc fragment into anti-human IgG Fc (AHC) biosensor (Forte Bio, 18-5063) for 30 seconds. Then, anti-CD127 antibodies were added at 20 μg/mL (saturating concentration) for an association period of 120 seconds, followed by a dissociation period of anti-CD127 antibody in kinetics buffer for 120 seconds. Data analysis was made with the Blitz pro 1.2 software, which calculated association constant (ka) and dissociation constant (kd) and determined the affinity constant KD […].

Test [6] shares this target. Kind of test: ELISA on CD127 after storage of the antibody 30 days at 42° C. (given as ED50). As to the method: as §1
(§2) Stability of the antibodies was studies by incubating the antibodies for 7, 14, or 30 days at 4° C., 25° C. and 42° C.

For test [7] the target is unchanged. Kind of test: ELISA on CD127 after storage of the antibody 14 days at 25° C. (given as ED50). As to the method:
as §1, §2

Test [8] has the same target. Kind of test: ELISA on CD127 after storage of the antibody 7 days at 4° C. (given as ED50). How it is done:
as §1, §2

The target is the same in test [9]. In words: ELISA on CD127 after storage of the antibody 14 days at 42° C. (given as ED50). As to the method:
as §1, §2

For test [10] the target is unchanged. Kind of test: ELISA on CD127 after storage of the antibody 14 days at 4° C. (given as ED50). How it is done:
as §1, §2

Test [11] has the same target. In words: ELISA on CD127 after storage of the antibody 30 days at 4° C. (given as ED50). As to the method: as §1, §2
Test [12] has the same target. In words: ELISA on CD127 after storage of the antibody 7 days at 42° C. (given as ED50). How it is done: as §1, §2
For test [13] the target is unchanged. In words: ELISA on CD127 after storage of the antibody 7 days at 25° C. (given as ED50). As to the method:
as §1, §2

For test [14] the target is unchanged. In words: ELISA on CD127 after storage of the antibody 30 days at 25° C. (given as ED50). How it is done: as §1, §2

Residue numbers refer to the chain shown, from its start. In names and notes the source's numbering stands.

B1: 1A11 (antibody, V domains shown)
VH: EVQLQQSGPELLKPGASMKISCKASGYSFTGYTMNWVKQSHGKNLEWIGLINPYNGVTSYNQKFKGKATLTVAKSSSTAYMELLSLTSEDSAVYYCARGDGNYWYFDVWGAGTTVTVSS
VL: EIVLTQSPAITAASLGQKVTITCSASSSVTYMHWYQQKSGTSPKPWIYEISKLASGVPVRFSGSGSGTSYSLTISSMEAEDAAIYYCQEWNYPYTFGGGTKLEIK
Consider B1, for which the Kd in test [1] is 0.6 nM.

B2: MD707-13 (antibody, from another filing, human IgG4, V domains shown)
VH: QLKESGPGLVQPSQTLSLTCTVSGLSLPNNNIAWIRQSPGKGLEWMGVIWSNGDTDYNSAIRSRLSISRDSSKSQVFLRMNSLQSEDTAMYFCAREGMTTLDYWGQGVVVTVSS
VL: EIVLTQSPTTMAASPGEKVTITCRASSSVSYMHWFQQKSGSSPKPWIYDSSDLASGVPDRFSGSGSGTSYSLTISSMEAEDAATYYCLQRSSYPRTFGGGTKLELKR
As to B2, the Kd in test [2] was 0.5 nM.

B3: N13B2-h3 (antibody, V domains shown)
VH: QVQLVESGGGLVKPGGSLRLSCAVSGFTLSDYYMAWIRQAPGKGLEWVSTISASGLRTYYPDSVKGRFTISRDNAKNSLYLQMNSLRAEDTAVYYCARPLSAHYGFNYFDYWGQGTLVTVSS
VL: EIVMTQSPATLSVSPGERATLSCRTSEDIYQGLAWYQQKPGQAPRLLIYSANTLHIGIPARFSGSGSGTEFTLTISSLQSEDFAVYYCQQYYDYPLAFGGGTKVEIKR
notes: also called humanized N13B2 of WO 2015/189302
Consider B3, for which the 50% effective concentration (EC50) in [3] was 0.0168 µg/mL. The “IC50-MFI, inhibition of IL7-induced STAT5 phosphorylation in CD3+ human PBMC” value (from here on “IC50-MFI, inhibition”) in [4] worked out at 21.5 ng/mL. For the same molecule, in test [5], the dissociation constant Kd amounted to 2.33 nM, the off-rate (koff) is 0.00267 s⁻¹ and the kon turned out to be 1.15e+06 M⁻¹ s⁻¹.

B4: N13B2-hVL3 (antibody, V domains shown)
VH: B3 VH
VL: DIQMTQSPSSLSASVGDRVTITCRTSEDIYQGLAWYQQKPGKAPKLLVYSANTLHIGVPSRFSGSGSGTDYTLTISSLQPEDFATYFCQQYYDYPLAFGGGTKVEIKR
Consider B4, for which, in test [4], the “IC50-MFI, inhibition” value came to 27.2 ng/mL.

B5: N13B2-hVL6 (antibody, V domains shown)
VH: B3 VH
VL: B4 VL with V48L, F87Y
notes: also called N13B2-h3VL6; N13B2-VL6-V48L-F87Y
As to B5, the half-maximal effective concentration (EC50) in [3] came to 0.0095 µg/mL; in [6] it was 0.0587 µg/mL; in test [7] it was 0.0526 µg/mL; in test [8], 0.0553 µg/mL; in test [9] it was 0.0406 µg/mL; in test [10], 0.0628 µg/mL. Moreover, the EC50 was 0.047 µg/mL in test [11], 0.0562 µg/mL in test [12], 0.0478 µg/mL in [13] and 0.0402 µg/mL in test [14]. In addition, the “IC50-MFI, inhibition” value in test [4] worked out at 16.8 ng/mL. For the same molecule, the values for the Kd in [5] and in test [1] were 2.53 nM and 0.2 nM, respectively. The koff in test [5] worked out at 0.00266 s⁻¹. For the same molecule, in [5], the on-rate constant (kon) is 1.05e+06 M⁻¹ s⁻¹.

B6: N13B2-hVL4 (antibody, V domains shown)
VH: B3 VH
VL: B4 VL with V48L
notes: also called N13B2-VL4-V48L
In the case of B6, the half-maximal effective concentration (EC50) in [3] was found to be 0.0126 µg/mL. Besides, the “IC50-MFI, inhibition” value in test [4] came to 16.1 ng/mL. Besides, in [5], the Kd amounted to 2.71 nM, the koff is 0.00281 s⁻¹ and the kon came out at 1.04e+06 M⁻¹ s⁻¹.

B7: N13B2-hVL5 (antibody, V domains shown)
VH: B3 VH
VL: B4 VL with F87Y
notes: also called N13B2-VL5-F87Y
For B7, in test [3], the 50% effective concentration (EC50) came to 0.0148 µg/mL. Further, the “IC50-MFI, inhibition” value in [4] was 27.3 ng/mL. In test [5], the equilibrium dissociation constant (Kd) came out at 2.63 nM, the koff stood at 0.00266 s⁻¹ and the kon was 1.01e+06 M⁻¹ s⁻¹.

Source of the values: patent US20190375844A1 (OSE IMMUNOTHERAPEUTICS, published 2019).
